Some targets named below: HLA-A*02:03; HLA-A*02:06; HLA-A*02:02.
Assay in all cases: IEDB peptide-MHC binding, purified MHC/competitive/radioactivity; filed as Kd, often an IC50 or EC50 that approximates it; ≥ and ≤ were set here for values at or beyond the usual limits of such assays
Where [1] appears, read: source organism: Vaccinia virus WR.
Setting [2] is: source organism: SARS coronavirus Tor2.
[3] abbreviates: source organism: Dengue virus 2 Jamaica/1409/1983.
Setting [4] is: source organism: Lymphocytic choriomeningitis virus (strain Armstrong).

The Kd is a measure of binding affinity in units of concentration. Consider MQLKIDKLT, for which the Kd was not below 60100 nM in the experiment with HLA-A*02:03 (setting [1]), not below 59600 nM with HLA-A*02:06 (setting [1]) and 7670 nM with HLA-A*02:02 (setting [1]).
For AIDRQVSVKL the same measures were 13100 nM, not below 32000 nM and 7900 nM.
For RTIDAINKCV the same measures were 334 nM, 341 nM and 10800 nM.
As to KLKSMEAEMI, the Kd in the experiment with HLA-A*02:06 (source organism: Homo sapiens) worked out at 7830 nM.
Regarding YAVLSEYET, the Kd in the experiment with HLA-A*02:03 (setting [1]) is not below 35100 nM; with HLA-A*02:06 (setting [1]) it was 1330 nM; with HLA-A*02:02 (setting [1]) it was 1780 nM.
As to KLLIVLTCI, the dissociation constant Kd with HLA-A*02:03 (setting [2]) came out at 1940 nM; in the experiment with HLA-A*02:06 (setting [2]) it was 449 nM; with HLA-A*02:02 (setting [2]), 260 nM.
As to ILAVVSVSPL, the Kd in the experiment with HLA-A*02:03 (source organism: Dengue virus 2 16681-PDK53) was determined as 39.5 nM.
Consider IAIFNNRNL, for which the dissociation constant (Kd) is 10500 nM with HLA-A*02:03 (setting [1]), 13400 nM in the experiment with HLA-A*02:06 (setting [1]) and 9230 nM with HLA-A*02:02 (setting [1]).
For IISLFYTFAI the same measures were 43.7 nM, 146 nM and 108 nM.
IVSLCPTKKL: the results for the Kd with HLA-A*02:03 (setting [1]), with HLA-A*02:06 (setting [1]) and in the experiment with HLA-A*02:02 (setting [1]) were 29.5 nM, not below 28400 nM and 9.46 nM, respectively.
The like results for GTKGKLYIAL were, in that order, 7840 nM, not below 37200 nM and 9070 nM.
Regarding VMDKNHAIFT, the dissociation constant (Kd) in the experiment with HLA-A*02:03 (setting [1]) is 11500 nM; with HLA-A*02:06 (setting [1]), not below 69800 nM; with HLA-A*02:02 (setting [1]), 18700 nM.
On to SMTCIAVGMV, for which, in the experiment with HLA-A*02:03 (source organism: Dengue virus 1 Brazil/97-11/1997), the Kd amounted to 21.5 nM.
LVFLWLLWPV: the Kd came out at 1.93 nM in the experiment with HLA-A*02:03 (setting [2]), 0.564 nM with HLA-A*02:06 (setting [2]) and 0.926 nM in the experiment with HLA-A*02:02 (setting [2]).
ALLSCIRNA: the dissociation constant Kd came to 6.22 nM with HLA-A*02:03 (setting [1]), 77.4 nM with HLA-A*02:06 (setting [1]) and 120 nM with HLA-A*02:02 (setting [1]).
For GAAITLVVI the same measures were 3280 nM, 2950 nM and 6450 nM.
As to GARVIWMDA, the Kd with HLA-A*02:03 (setting [1]) came out at 9140 nM; in the experiment with HLA-A*02:06 (setting [1]), 2140 nM; with HLA-A*02:02 (setting [1]), 4600 nM.
For LVAEHRFENM the same measures were 462 nM, 723 nM and 2050 nM.
For KVIKLVKSL the same measures were 42.5 nM, 260 nM and 578 nM.
The like results for GLIVILFIM were, in that order, 1390 nM, 5290 nM and 13400 nM.
Regarding CVDHPFIYV, the values for the dissociation constant (Kd) in the experiment with HLA-A*02:03 (setting [1]), with HLA-A*02:06 (setting [1]) and with HLA-A*02:02 (setting [1]) were 1410 nM, 148 nM and 300 nM, respectively.
As to WLKDSAIMVA, the Kd in the experiment with HLA-A*02:03 (setting [1]) amounted to 1320 nM; with HLA-A*02:06 (setting [1]), 4840 nM; in the experiment with HLA-A*02:02 (setting [1]) it was 14.8 nM.
For the sequence ALGMMVLKIV, in the experiment with HLA-A*02:03 (setting [3]), the Kd is 55.9 nM.
With GTKGKLYIA, the dissociation constant (Kd) with HLA-A*02:03 (setting [1]) amounted to 55.9 nM; in the experiment with HLA-A*02:06 (setting [1]), 2530 nM; with HLA-A*02:02 (setting [1]) it was 1720 nM.
Regarding SNSEDLLKAV, the equilibrium dissociation constant (Kd) was 15200 nM with HLA-A*02:03 (setting [4]), not below 10000 nM with HLA-A*02:06 (setting [4]) and 17700 nM in the experiment with HLA-A*02:02 (setting [4]).
Consider TIAGGVCYYL, for which the Kd in the experiment with HLA-A*02:03 (setting [1]) turned out to be 34.3 nM; with HLA-A*02:06 (setting [1]), 4.01 nM; with HLA-A*02:02 (setting [1]) it was 0.036 nM.
For IMETIDPVYI the same measures were 239 nM, 349 nM and 28.6 nM.
For DVERLQMAGV the same measures were 104 nM, 776 nM and 215 nM.
The like results for SIAMLKSKNI were, in that order, 55 nM, 259 nM and 1090 nM.
As for RILSEKRKDT, the dissociation constant (Kd) came to 4160 nM with HLA-A*02:03 (setting [1]), 6860 nM with HLA-A*02:06 (setting [1]) and 711 nM with HLA-A*02:02 (setting [1]).
For NMLDDFSAGA the same measures were 161 nM, 242 nM and 308 nM.
For the sequence VLQQNNSFII, the dissociation constant Kd in the experiment with HLA-A*02:03 (setting [1]) was found to be 1030 nM; with HLA-A*02:06 (setting [1]), 9650 nM; with HLA-A*02:02 (setting [1]), 665 nM.
ATQFNFNGHT: the dissociation constant Kd is 11500 nM with HLA-A*02:03 (setting [1]), not below 26500 nM with HLA-A*02:06 (setting [1]) and not below 28600 nM with HLA-A*02:02 (setting [1]).
For the sequence CQCTVQEFI, the figures for the Kd in the experiment with HLA-A*02:03 (setting [1]), with HLA-A*02:06 (setting [1]) and with HLA-A*02:02 (setting [1]) were 4790 nM, 1130 nM and 2050 nM, respectively.
For ITLILSNKLL the same measures were 4690 nM, 3890 nM and 1090 nM.
For RTMPNESRV the same measures were 100 nM, 155 nM and 140 nM.
As to GIKNLKSLL, the Kd with HLA-A*02:03 (setting [1]) is 2620 nM; with HLA-A*02:06 (setting [1]) it was not below 61200 nM; in the experiment with HLA-A*02:02 (setting [1]) it was 2140 nM.
Regarding GQIDNFSLGV, the equilibrium dissociation constant (Kd) in the experiment with HLA-A*02:06 (setting [3]) came out at 5.63 nM.

The record behind these values is the Immune Epitope Database (IEDB).
